Consider two molecules from publication PMC6735679.

Like-named read-outs stand apart in the source and are kept apart here.

Data set [1] has as its target T1, CNBP (Homo sapiens, UniProt P62633 1-177). As to the kind of experiment: EMSA. For orientation: Mobility shift assays separate free from complexed probe on a gel.
Data set [2] deals with T1, CNBP. As to the kind of experiment: EMSA. The source holds these as a separate data set.

T1 sequence (P62633 whole entry): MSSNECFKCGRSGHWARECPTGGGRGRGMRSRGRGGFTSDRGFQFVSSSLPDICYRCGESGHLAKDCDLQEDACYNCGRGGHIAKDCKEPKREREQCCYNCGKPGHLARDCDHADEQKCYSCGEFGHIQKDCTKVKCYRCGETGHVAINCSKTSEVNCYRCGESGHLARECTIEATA

With GAGGGGGAGGGGGG (ssDNA) [C14], the binding result with CNBP [1] is “binds”.
As to TGGGGT (ssDNA) [TG4T (single strand)], the binding result with CNBP [2] was “no binding”.
